The source of these data is patent publication US20100143379A1 (priority 2005, published 2010).

Data set [1] concerns COS-7/CD74+CD44 cell line. The data set is described as follows: In vitro apoptosis, caspase-3 activity, COS-7 cell lines. It counts as cell-based. The note with it: MIF 100 ng/ml; apoptosis inducers SNP and camptothecin, 24 hrs. How it is done: Apoptosis Studies. […] Cell lysates were collected, and caspase-3 activity analyzed using a colorimetric assay kit (R&D Systems). Cytoplasmic p53 content was analyzed as described previously (Mitchell et al. (2002). Proc Natl Acad Sci USA 99:345-350) by immunoblotting of mouse cytosolic fractions using a pair of anti-phospho-p53 (Ser15) (R&D Systems) and total anti-p53 antibodies (Cell Signaling); and for COS-7 cells, the anti-p53 (Ser15) and total anti-p53 antibodies (Cell Signaling). In vivo apoptosis studies followed the procedures of (Mitchell et al. (2002). Proc Natl Acad Sci USA 99:345-350), and were conducted after i.p injection of 15 mg/kg lipopolysaccharide (E. coli 0111:B4; Sigma). Mice were sacrificed 24 hrs after priming and the peritoneal macrophage cells collected and immediately analyzed for apoptosis by an ELISA that detects cytoplasmic oligonucleosomes (Roche Diagnostics). Primary macrophages also were immunostained by Alexa 488-conjugated, Annexin V (Invitrogen), and apoptotic cells enumerated by fluorescence microscopy.

For data set [2], the system named is human K562 progenitor cell line. The data set is described as follows: K562 terminal erythropoietic differentiation (DAF stain) and hemoglobin content. The format is cell-based. How it is done: The neutralizing anti-MIF mAb was added at 100 μg/ml. DAF positive cells were enumerated and expressed as fold-change over total, input cells. FIG. 2B: cellular hemoglobin content of cultured K562 progenitor cells. […] Each value represents the mean±SD of at least three different experiments. *P<0.01 versus corresponding controls.
(§1) The human K562 progenitor cell line (ATCC, CCL-243) was cultured in RPMI/10% FBS supplemented with penicillin and streptomycin. For differentiation, sodium butyrate (AldRick, Milwaukee, Wis.) was added in the medium (Witt et al. 2000. Blood 95:2391-2396). Terminal erythropoietic differentiation was measured as described by McGukin et al. (McGuckin et al. 2003. European Journal of Haematology 70:106-114) and positive cells enumerated after staining with 2,7-diaminofluorene (Sigma, St. Louis, Mo.). To quantify hemoglobin synthesis, the cells were centrifuged and washed in PBS, and the cell pellet resuspended in lysis buffer (100 mM potassium phosphate pH 7.8, 0.2% Triton X-100) before disruption by aspiration through a 21-gauge needle. After microcentrifugation, the supernatant was collected and the hemoglobin concentration was determined using the hemoglobin kit from Sigma. Cell viability was assessed by trypan blue dye exclusion and found to be equivalent (85-90% viability) between all samples studied.

The subject of data set [3] is JNK-1/2. The data set is described as follows: MAP kinase phosphorylation in differentiating K562 progenitors (Western blot). The settings on record: vs differentiation medium alone; did not reach statistical significance (96 hrs, p<0.06). The format is cell-based, human. As to the method:
(§2) MIF addition markedly affected these differentiation-associated, MAP kinase responses.
(§3) Western Blot Analysis. Immunoblotting with antibodies directed against phospho-ERK1/2, total ERK1/2, phospho-JNK1/2, total JNK1/2, phospho-p38, and total p38 was performed according to the manufacturer's instructions (New England Biolabs, Beverly, Mass.). The secondary antibody was an anti-rabbit IgG conjugated to horseradish peroxidase and detection was by chemiluminescence according to the manufacture's instructions (Amersham Pharmacia Biotech, Piscataway, N.J.). For quantitation of signal intensity of phospho-specific kinase results, western blots were scanned using a UMAX, PowerLook IIII scanner and the images were analyzed using UN-SCAN-IT gel Automated Digitizing system software version 5.1 (Silk Scientific Corporation, USA). The ratio between phosphorylated to the total MAP kinase was determined and expressed as a fold-change for each lane (mean±S.E.M for three blots from independent cell cultures). The p values were calculated for each of the time course comparisons (4, 16, 96 hrs) of three different experiments (Student T-test, two-tailed).

The subject of data set [4] is p38. The data set is described as above. The format is cell-based, human. The settings on record: 16 hrs, p<0.01; 96 hrs, p<0.04. How it is done: as §2, §3
Data set [5] has as its system ERK-1/2. Put plainly: ERK-1/2 phosphorylation in murine embryonic fibroblasts and peritoneal macrophages. The format is cell-based. The settings on record: wild-type, CD74-KO and CD44-KO cells. As to the method:
Whole cell lysates then were prepared and analyzed by Western blotting with specific anti-phospho-ERK-1/2 (p-ERK1/2) or anti-total ERK/1/2 antibodies. […] Peritoneal macrophages were stimulated for 10 mins (Mitchell et al. (1999). J Biol Chem 274:18100-6) and the lysates then analyzed by Western blotting. […] Recombinant, sCD74 was incubated with MN overnight in a 3:1 molar ratio prior to addition to cells for 10 mins. Epidermal growth factor (EGF) was used as a positive control for ERK-1/2 phosphorylation (Yamamoto et al. (2003). Develop Biol 260:512-521). Data shown are representative of three experiments.
Signal Transduction Assays. […] The human CD74 ectodomain (CD74^73-232) was prepared recombinantly in soluble form (sCD74) as described previously (Leng et al. (2003). J Exp Med 197:1467-1476). […] Cells then were harvested and lysed in buffer containing 50 mM Hepes, pH7.5, 150 mM NaCl, 1.5 mM MgCl2, 1 mM EGTA, 1% Glycerol and 1% Triton X-100, and freshly added phosphatase and proteinase inhibitors (1 mM orthovanandate, 10 mM NaF, 10 μg/ml leupeptin, 25 μg/ml aprotinin and 50 μg/ml PMSF). For immunoblotting, 15-20 μg of cell lysate proteins were separated by 10% SDS-PAGE and transferred to PVDF Immobilon-P transfer membranes (Millipore). […]

Data set [6] has as its system Friend murine erythroleukemia (MEL) cell line. Put plainly: MEL cell cytodifferentiation and hemoglobin content. It counts as cell-based. How it is done:
The specificity of this effect was verified by the application of a neutralizing, anti-MIF mAb.
Erythroid Progenitor Cell Lines. The Friend murine erythroleukemia (MEL) cell line was cultured in Dulbecco's modified Eagle's medium supplemented with 10% FBS. Differentiation was induced with dimethyl sulfoxide differentiation medium for 4 days as described (Terada et al. 1977. Proc. Natl. Acad. Sci. USA 74:248-252). Hemoglobin synthesis was assessed by cyto-centrifugation onto glass slides followed by staining with benzidine (Worthington), and by the hemoglobin kit from Sigma.

Data set [7] concerns erythroid progenitors. Put plainly: Cytotoxicity by Trypan blue exclusion. The format is cell-based. How it is done: as §1

B1: MIF: macrophage migration inhibitory factor; recombinant mouse or human MIF purified essentially free of endotoxin (protein)
chain: PMFIVNTNVPRASVPDGFLSELTQQLAQATGKPPQYIAVHVVPDQLMAFGGSSEPCALCSLHSIGKIGGAQNRSYSKLLCGLLAERLRISPDRVYINYYDMNAANVGWNNSTFA
As to B1, in data set [1], the protection from apoptosis entry is recorded as “significant protective effect”. Further, in data set [2] (MIF 200 ng/ml for 96 hrs), the “terminal erythropoietic differentiation (DAF stain)” value is on record as “inhibited the terminal erythropoietic differentiation”. For the same molecule, the hemoglobin production result in data set [2] (cellular hemoglobin content of cultured K562 progenitor cells) is “inhibition of cytodifferentiation and hemoglobin production”. The JNK-1/2 phosphorylation entry in data set [3] is “appeared to upregulate JNK-1/2 phosphorylation”. Besides, in data set [4], the “differentiation-associated changes in p38 MAP kinase phosphorylation” value is “reduced”. Further, the ERK-1/2 phosphorylation result in data set [5] is reported as “induced ERK-1/2 phosphorylation only in wild-type cells”. Moreover, the “reduction of hemoglobin content” value in data set [6] (20 ng/ml) stood at 12%; in data set [6] (100 ng/ml), 20%. For the same molecule, in data set [6] (200 ng/ml), the “cytodifferentiation response (benzidine staining)” value is on record as “decreased the cytodifferentiation response”. In addition, the cytotoxic effects entry in data set [7] was “Neither MIF nor anti-MIF were found to exert cytotoxic effects”.
